Results: US6994968

Biological target: human Slo1 (human), Q12791
Test: cell-based or functional assay

Chain of human Slo1 (human), Q12791 (Q12791 whole entry): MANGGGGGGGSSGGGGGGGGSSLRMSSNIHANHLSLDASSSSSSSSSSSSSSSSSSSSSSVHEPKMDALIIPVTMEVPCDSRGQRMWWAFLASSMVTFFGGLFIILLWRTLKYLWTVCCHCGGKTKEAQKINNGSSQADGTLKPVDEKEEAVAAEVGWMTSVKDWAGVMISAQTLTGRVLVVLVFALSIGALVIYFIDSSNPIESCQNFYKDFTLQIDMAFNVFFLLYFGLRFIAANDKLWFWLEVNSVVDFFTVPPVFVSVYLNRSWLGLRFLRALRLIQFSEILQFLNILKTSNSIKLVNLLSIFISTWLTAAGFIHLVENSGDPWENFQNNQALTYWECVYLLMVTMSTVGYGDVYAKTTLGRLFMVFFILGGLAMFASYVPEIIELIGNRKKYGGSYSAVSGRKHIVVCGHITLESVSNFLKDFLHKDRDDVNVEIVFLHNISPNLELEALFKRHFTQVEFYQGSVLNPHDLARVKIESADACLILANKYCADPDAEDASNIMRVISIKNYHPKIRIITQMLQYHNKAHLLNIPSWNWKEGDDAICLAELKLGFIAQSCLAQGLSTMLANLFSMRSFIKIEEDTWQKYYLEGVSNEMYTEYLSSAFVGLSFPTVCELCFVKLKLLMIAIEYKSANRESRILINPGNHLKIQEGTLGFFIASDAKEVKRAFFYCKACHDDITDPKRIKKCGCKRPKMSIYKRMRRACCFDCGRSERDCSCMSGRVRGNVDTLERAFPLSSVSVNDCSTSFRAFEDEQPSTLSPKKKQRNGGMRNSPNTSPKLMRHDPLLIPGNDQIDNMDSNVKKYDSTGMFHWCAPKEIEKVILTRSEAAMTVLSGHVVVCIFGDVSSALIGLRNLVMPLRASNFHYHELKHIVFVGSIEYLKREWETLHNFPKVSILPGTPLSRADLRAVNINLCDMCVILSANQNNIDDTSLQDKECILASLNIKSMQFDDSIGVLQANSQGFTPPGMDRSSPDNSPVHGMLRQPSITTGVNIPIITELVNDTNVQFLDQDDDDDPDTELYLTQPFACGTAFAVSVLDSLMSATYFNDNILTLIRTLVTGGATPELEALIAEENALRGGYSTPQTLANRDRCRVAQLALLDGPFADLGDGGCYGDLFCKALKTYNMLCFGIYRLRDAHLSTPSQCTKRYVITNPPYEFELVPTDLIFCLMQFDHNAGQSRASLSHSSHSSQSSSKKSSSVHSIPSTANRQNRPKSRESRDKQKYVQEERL

leftward shift in the Slo-1 activation curve (V1/2act) in the presence of 50 µM free Ca2+: 15 mV
B1: human BK beta 3, Q86W47 1-210 (protein)
chain: MAKLRVAYEYTEAEDKSIRLGLFLIISGVVSLFIFGFCWLSPALQDLQATEANCTVLSVQQIGEVFECTFTCGADCRGTSQYPCVQVYVNNSESNSRALLHSDEHQLLTNPKCSYIPPCKRENQKNLESVMNWQQYWKDEIGSQPFTCYFNQHQRPDDVLLHRTHDEIVLLHCFLWPLVTFVVGVLIVVLTICAKSLAVKAEAMKKRKFS
